Literature values as cited in patent US9925277B2, “Polynucleotide compositions containing amino acids” (ModernaTX, Inc., priority 2013, dated 2018).

Molecular target: Factor IX (Homo sapiens, UniProt P00740, R384L)
Conditions: mutation at position R338L

Chain of Factor IX (P00740 47-461 R384L): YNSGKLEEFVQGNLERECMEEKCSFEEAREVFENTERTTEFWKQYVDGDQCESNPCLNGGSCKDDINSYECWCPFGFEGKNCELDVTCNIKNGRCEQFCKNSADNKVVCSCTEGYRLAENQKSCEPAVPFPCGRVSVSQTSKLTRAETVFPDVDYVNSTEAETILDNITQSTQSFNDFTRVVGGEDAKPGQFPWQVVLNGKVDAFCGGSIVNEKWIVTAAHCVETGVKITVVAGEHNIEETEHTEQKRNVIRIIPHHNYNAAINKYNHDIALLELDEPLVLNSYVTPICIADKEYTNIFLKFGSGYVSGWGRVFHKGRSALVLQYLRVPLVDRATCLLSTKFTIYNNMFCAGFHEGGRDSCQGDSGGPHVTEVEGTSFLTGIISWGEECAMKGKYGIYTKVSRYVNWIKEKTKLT

increased activity of Factor IX protein: 10 fold
Substance: FIX Padua: Factor IX protein with mutation at position R338L, hyperactive naturally occurring variant
